Among the data in patent US20240294926 are activity (% PARylated cells) values, retold here.

This series deals with PARP (endogenous, MDA-MB-231 cells) (Homo sapiens). Nature of the series: cell_activity. The following applies: cholesterol-conjugated, HEG loop, 5 uM, 48 h.

“CCCAGCAAACAAGCCT (double strand) [OX401]” registered an activity (% PARylated cells) (3 PS linkages on each strand, PARP activation weaker than OX413) of 20. Regarding “CCCAGCAAACAAGCCT (double strand) [OX413]”, the activity (% PARylated cells) (FANA (2'-deoxy-2'-fluoroarabino) nucleotides and PS linkages (positions only in images), PARP activation) was greater than 40.
